# Laboratory results taken from publication PMC11279616 (Pharmaceuticals, 2024).
# Where “and” joins values, the source holds several entries; their conditions need not be identical. Equal entries are not always repeated.
# Target: SARS-CoV-2 Omicron BA.5 sublineage receptor binding domain (RBD) (SARS-CoV-2) (UniProt P0DTC2)
# Assay: SPR
substance,measurement,value
DPP4_(270–295) peptide,Kd,1.2 µM and 1.53 µM
same,koff,0.0014 s⁻¹
same,kon,1160 M⁻¹ s⁻¹
